Where two headings read alike, the source gives them in different places.
What was measured:
Assay in all cases: crystal structure
crystal structure [1] = biological target: the molecule itself
crystal structure [2] = biological target: the molecule itself; remark: listed apart in the source
crystal structure [3] = biological target: the molecule itself; remark: listed apart in the source
crystal structure [4] = biological target: the molecule itself; remark: listed apart in the source

B1: S-adenosyl-L-homocysteine hydrolase from Pyrococcus furiosus (enzyme)
chain: MDCGKDYCVKDLSLAEEGWKKIDWVSRFMPVLQYIKREFEEKKPFKGVRIAATLHLEMKTAFLLLTLKAGGAEVSAAASNPLSTQDDVVAALAKAGVKVYAIRGESREQYYEFMHKALDIRPNIIIDDGADMISLVHKERQEMLDEIWGGSEETTTGVIRLRAMEKAGILKFPVIAVNDSYMKYLFDNRYGTGQSTWDGIMRATNLLIAGKNVVVVGYGWCGRGIAMRARGLGATVIVVEVDPIKALEARMDGFLVMDMKEAAKIGDIFVTATGNIKCIRREHFELMKDGAIMANAGHFDVEIWKPDLEKLAVEINNPRPNVTEYKLKDGRRLYLLADGRLVNLVAADGHPAEIMDMSFALQAKAAEYIKDNHERLEPKVYILPREIDEMVARIKLESMGIKIEELTEEQKKYLESWEHGT
- stoichiometry N (crystal structure [1]): 4

B2: S-adenosyl-L-homocysteine hydrolase from Methanococcus maripaludis (enzyme)
chain: MSNVKDMSLAPSGHLKMEWAKRHMPVLCRIAEEFKNDKPFEGLTIGMALHLEAKTAILAETLLEGGAKIVITGCNPLSTQDDVAAACVEKGMEVYAWRGETNEEYYENLNKVLDSNPDIIIDDGADLIFLIHTERTELIGKIMGGCEETTTGIIRLKSMAEEGALKFPVVNVNDAYTKHLFDNRYGTGQSAMDGIIRTTNLLIAGKNVVVGGYGWCGRGVASRAAGHGANVIITEVNPIRALEAKMDGFTVLKMEEAAKIGDIFVTTTGCKDILRMEHFLLMKDGAVLSNAGHFDNEINKNDLKELSKSVKEARFNIEEYDLGNKKIYLLGEGRLVNLACADGHPCEVMDMSFANQALSAKFIKENKGKLENEVYEIPYEQDFKIALLKLHSMGADIDELSPEQRKYLSDWKEGT
- stoichiometry N (crystal structure [2]): 4

B3: S-adenosyl-L-homocysteine hydrolase from Sulfolobus acidocaldarius (enzyme)
chain: MDYRVKDLSLAEQGRKQIEWAELHMPALMEIRKRFNAEKPLDGIRIGAVLHVTKETAVLVETLKAGGAEIALAGSNPLSTQDDVAAGLAKNGIHVYAWRGETEKDYYDNIREILKYEPHVIMDDGGDLHAYVHENNLTSKIVGGTEETTTGVIRLKAMEEEKVLKYPVIAVNNAFTKYLFDNRIGTGQSTIDGILRATNILIAGKVAVVIGYGWVGRGIASRFKGMGARVIVVESSPFRALEALMDGFDVMTMNRASEIGDIFVTATGNLNVVSRDHILRMKDGAVLANSGHFNVEIDVKGLKEISVETREVRQNLEEYKLRNGKRIYLLADGRLVNLVAAEGHPSEVMDLSFCNQALSVEHLIKNKGKLENKVYNVPIEIDEQVARLKLKALGIEIEELTIEQKEYIKQWKYGT
- stoichiometry N (crystal structure [3]): 4

B4: S-adenosyl-L-homocysteine hydrolase from Mus musculus (enzyme)
chain: MSDKLPYKVADIGLAAWGRKALDIAENEMPGLMRMREMYSASKPLKGARIAGCLHMTVETAVLIETLVALGAEVRWSSCNIFSTQDHAAAAIAKAGIPVFAWKGETDEEYLWCIEQTLHFKDGPLNMILDDGGDLTNLIHTKYPQLLSGIRGISEETTTGVHNLYKMMSNGILKVPAINVNDSVTKSKFDNLYGCRESLIDGIKRATDVMIAGKVAVVAGYGDVGKGCAQALRGFGARVIITEIDPINALQAAMEGYEVTTMDEACKEGNIFVTTTGCVDIILGRHFEQMKDDAIVCNIGHFDVEIDVKWLNENAVEKVNIKPQVDRYWLKNGRRIILLAEGRLVNLGCAMGHPSFVMSNSFTNQVMAQIELWTHPDKYPVGVHFLPKKLDEAVAEAHLGKLNVKLTKLTEKQAQYLGMPINGPFKPDHYRY
- binding result (crystal structure [4]): binds

Source: paper doi:10.1101/2023.05.12.540488 (bioRxiv, 2023)
